This is an account of results in publication PMC2607015, “The Cell Adhesion Molecule “CAR” and Sialic Acid on Human Erythrocytes Influence Adenovirus In Vivo Biodistribution” (PLoS Pathogens, 2009).

Some results are limits rather than exact numbers.

One assay concerns the target CAR D1 (human) (UniProt P78310).
The target of assay [1] is wild type CAV-2 fiber head (canine adenovirus serotype 2 (CAV-2)) (UniProt Q65914). Briefly: crystal structure; crystals of the CAV-2 fiber head - CAR D1 complex (space group I422) soaked with 10 to 50 mM sialyl-D-lactose; 2.9 Å.
Assay [2] has the same target. Briefly: crystal structure; untagged CAV-2 fiber head crystallised with sialyl-D-lactose; 1.9 Å.
Assay [3] deals with T1, CAV-2 fiber head (CAV-2H^wt) (Canine adenovirus 2 strain Toronto A 26-61, UniProt Q65914).
T1 construct: gene L5; fiber head domain residues 358-542, N-terminal His-tag cleaved with TEV, pPROEX HTb; homotrimer
Description: X-ray crystal structure ([…] Å). The class given is binding. The note with it: crystals grown with 8 mM and soaked in about 80 mM ligand, pH 7.4; Neu5Ac moiety bound at trimer periphery (Asn435, Ser419, Ser416, Gln417, Arg515).

In assay [4] the target is T2, HAd37 fiber head in complex with CAR D1 (Human adenovirus D37, UniProt Q64823).
T2 construct: gene L5; fiber head residues 177-365 with CAR domain D1; one monomer of each in asymmetric unit (space group I23, trimer by symmetry); with Coxsackievirus and adenovirus receptor (human), Ig-like domain D1
Description: X-ray crystal structure ([…] Å). The class given is binding. The settings on record: ligand soaked at 10 to 50 mM; ternary complex with CAR D1; Neu5Ac site of fiber head, not overlapping CAR site; HAd37 Neu5Ac site near the three-fold axis.

Sequence of CAR D1 (human) (P78310 20-140): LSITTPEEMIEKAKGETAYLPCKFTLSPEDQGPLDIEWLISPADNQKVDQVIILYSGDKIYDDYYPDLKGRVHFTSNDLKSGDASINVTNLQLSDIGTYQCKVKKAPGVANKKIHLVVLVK

For the compound “CAV-2H^SA−1: CAV-2 fiber head mutant R515A (from UniProt Q65914 358-542) (domain or fragment)”, the fold reduction of CAV-2 hemagglutination of human erythrocytes (CAR on the erythrocytes) after pre-incubating the erythrocytes with the fiber head in the assay with CAR D1 (human) stood at 16 fold.

Usually stoichiometry N stands for the number of molecules, sites or subunits per partner or assembly. In the assay with CAR D1 (human), “wild type CAV-2 fiber head (from UniProt Q65914 358-542) (domain or fragment)” had a fold reduction of CAV-2 hemagglutination of human erythrocytes (CAR on the erythrocytes) after pre-incubating the erythrocytes with the fiber head of more than 256 fold. Besides, the stoichiometry N in assay [1] and in assay [2] was 3 in each case. Take “CAV-2H^CAR−: CAV-2 fiber head with E384A mutation (CAR binding site) (from UniProt Q65914 358-542) (domain or fragment)”: in the assay with CAR D1 (human), the fold reduction of CAV-2 hemagglutination of human erythrocytes (CAR on the erythrocytes) after pre-incubating the erythrocytes with the fiber head is 2 fold.

Regarding `CC(=O)N[C@H]1[C@H]([C@H](O)[C@H](O)CO)O[C@@](O[C@H]2[C@@H](O)[C@@H](CO)O[C@@H](O[C@H]3[C@H](O)[C@@H](O)C(O)O[C@@H]3CO)[C@@H]2O)(C(=O)O)C[C@@H]1O` (stereo partly drawn) [sialyl-D-lactose, α2-3 N-acetylneuraminosyl-D-lactose], the “X-ray crystal structure (1.9 Å)” value in assay [3] is “clear density for six N-acetyl neuraminic acid (Neu5AC) moieties in the asymmetric unit”. For the same compound, in assay [4], the “X-ray crystal structure (1.55 Å)” value was “one CAR D1 molecule and one sialyl-D-lactose molecule in the asymmetric unit”.
